Test: soluble on expression in E. coli; label from the status in PepcDB or PDB records

Row | Sequence | soluble on expression in E. coli
1 | MGHHHHHHSHEVIKGSWQPVGDLLIDSLQDHLEKVKALRGEIAPLKENVSHVNDLARQLTTLGIQLSPYNLSTLEDLNTRWKLLQVAVEDRVRQLHEAHRDFGPASQHFLSTSVQGPWERAISPNKVPYYINHETQTTCWDHPKMTELYQSLADLNNVRFSAYRTAMKLRRLQKALCLDLLSLSAACDALDQHNLKQNDQPMDILQIINCLTTIYDRLEQEHNNLVNVPLCVDMCLNWLLNVYDTGRTGRIRVLSFKTGIISLCKAHLEDKYRYLFKQVASSTGFCDQRRLGLLLHDSIQIPRQLGEVASFGGSNIEPSVRSCFQFANNKPEIEAALFLDWMRLEPQSMVWLPVLHRVAAAETAKHQAKCNICKECPIIGFRYRSLKHFNYDICQSCFFSGRVAKGHKMHYPMVEYCTPTTSGEDVRDFAKVLKNKFRTKRYFAKHPRMGYLPVQTVLEGDNMETPVTLINFWPVDSAPAS | not soluble
2 | MNSGPKVSVIMGIYNCERTLAESIESILSQSYKNWELILCDDASTDGTLRIAKQYAAHYSDRIKLIQNKTNKRLAASLNHCLSHATGDYIERQDGDDLSFPRRLEKQVAFLEKHRHYQVVGTGMLVFDEFGVRGARILPSVPEPGIMAKGTPFCHGTIMMRASAYRTLKGYRSVRRTRRMEDIDLWLRFFEEGFRGYNLQEALYKVREDSDAFKRRSFTYSIDNAILVYQACRRLKLPLSDYIYIAKPLIRAFMPAAVMNRYHKKRVMNQKEGLVKHELEHHHHHH | not soluble
3 | MIDVMQIQEILPHRYPFLLVDKITELKVKEVVLGYKNISISDHVFMGHFPGHPIYPGVLILEGMAQTGGVLAFESMEDKVDPKSKVVYFTGIDGAKFRNPVRPGDRLDYEMSVVKNRGNMWIFKGQAFVDGNLVAEAELKAMIVDK | soluble
4 | MAHHHHHHSLKIRQARLEDLDRIVELEFENFSVEEAIPPSVFEAHLREIQTSFLVAEKEGRIMGYIEGPVGLHRHLQDQSFTEEIKDYSHEPGGYISVTCLSIAKEAQGLGLGQKLLTALKEVALEDERDGINLTCHDYLIAYYEKHGFVNEGQSQSTFAGETWYDMVWEMKKEG | not soluble
5 | SPGSAAKGSELSERIESFVETLKRGGGPRSSEEMARETLGLLRQIITDHRWSNAGELMELIRREGRRMTAAQPSETTVGNMVRRVLKIIREEYGRLHGRTDESDQQESLHKLLTSGGLNEDFSFHYAQLQSNIIEAINELLVELEGTMENIAAQALEHIHSNEVIMTIGFSRTVEAFLKEAARKRKFHVIVAECAPFCQGHEMAVNLSKAGIETTVMTDAAIFAVMSRVNKVIIGTKTILANGALRAVTGTHTLALAAKHHSTPLIVCAPMFKLSPQFPNEEDSFHKFVAPEEVLPFTEGDILEKVSVHCPVFDYVPPELITLFISNIGGNAPSYIYRLMSELYHPDDHVL | soluble
6 | MSLSLESLEWMAFDSFLLWRSEESIDARILLVEINQNDNYSLTSTISNSSFIGVIEKLQVYQPKVIGLEVDQHLLINSQEDKLAKIFQKYKNLIANEKILPLQVHSYLDLPNEQITFADQILDNDGKSRRSLLAINTSNGYKLSLAMELARIYLAEKNISLENSRLGKTKLPRFLPNSGGYIRADASGFQVLINFRSGNQRFRTLSGEDIKNGKFNPEWIRDRIVIIGITNTHNQGFIPTSAITSVKSASTQVNKLEIQAHAISQIISAVLDGRPLINTWNDGEGHHHHHH | not soluble
7 | MHTRAEKLEAFGRLLDVLDTLREQCPWDRKQTNESLRTNTIEEVYELSEALLGECPDDIRKELGDVLLHVAFYAKIGEEKGQFDIASVCHALCDKLIYRHPHIYGNVQVENAAEVVRNWEQLKLREKDGNKSVLSGVPKSLPALVKSYRMQEKAAGVGFDWEQREQVWPKVEEELNEVRGAIVSEDPDAMEAEFGDLLFAVVNAARLYGINPDNALERTNRKFDSRFSYVEQRAKQQGKALRDMTLSEMDALWNEAKQKGL | not soluble
8 | VRQLDSDGFAALMESIPHAISVHDRERNLVFSNPACAALIGYDTAEFADLEHEQLFHPDDAELWGTMLARVLGTESTSATAHLRIRHREGHWIWVRVAASTFTAGAERLVALVLQDESDTIWGNPTAARQPIR | not soluble
9 | MSLTMAKTLYEKVFDAHVVYEGKNELPILYIDRHLIHEVTSPQAFSGLKMAKRRMARADLTLATIDHDVSTKSMDLNACSDMAKEQITTLMQNTKEFGVRLLGLGDKNQGIVHIVGPELGFTLPGVTLVCGDSHTATHGAFGALAFGIGTSEVEHVMATQTLKQAKLKTMKIECKGQFQKGVYTKDLILYLIAQYGTAKGTGYAIEFCGELIRNLSMEARMTLCNMAIEFGAKVGMIAPDEITFEYIKGKEFAPKGEEFQKYCEYWKSLRSDEGAKYDASITLDVSKIKPQISYGTNPSQVIGIDEKIPKISDFKNQSEQKSLLDALYYVNLEQDQVIEGVKIDIVFIGSCTNGRLEDLKIAADILKGRKIHKNVKALIVPGSMQVRKEAENLGLDKIFIEAGCEWRYAGCSMCLGMNDDKANSGQRVASTSNRNFVGRQGKGSITHLMSPASAAACAIEGVICDNRKYLGEGHHHHHH | soluble
10 | MGEYERTVFTRRITGVETEYGITCVGDNSRRRLGADEAARYMFRPVVEEWGSSNVFIPNGARLYLDVGSHPEYASAECDSLSQLIAYDRAGDKIVDQLAQRAETALATEGIGGRVYLFKNNLDSLGNSYGCHENYLVSRDVVLKTLGRQLLPFLITRQLICGAGSIQDGQFQVSQRADHVWEGVSSATTRSRPIINTRDEPHADSHRFRRLHVIVGDSNMSETTCALKIGSTQLVLEMIEAGALSHDLELSNEIAAIREISRDITGMAPVPLKAGTSMPAIEIQRRYAEKALCWLEQRGDTEGTPNAEMHKVVSLWLDTISAIESNDLQALSRDIDWAIKLSLLRRAQRRIGCSESDFTHPKLAQLDLAYHDIRAGRGVFPVLESKQLVNRWINDTDIEQATRIAPSTTRAALRGEFLTAAKKLQAPISADWLRLKVNRPEPQIIELTDPFENTDDRVDQLISYMRNHAASYSTDTAIS | not soluble
11 | MGITLGKKQLNKGRVSLYLNYSYNGKRRKEYLGIILDAPTSAERRAENRNKVLIARQIKAKKELEFLSVEYHLNDIENTFDDILPTDKSNVPDFYILIGQYLDTYHKKDKKMVRACITHLRLFTRKKSLPITLLTKDFCINFLEYLRDHLRGNTPIGYFKKFKMCINKCIEKKLMTSNPTDGIRLMQFDEVTKAILSLKEIQKLAITPCPNNEVKRAFLFSCYCGLRWCDVHQLQYKDIDFSSNRLTILQQKVQSHSKNAILHLNLNHTAIKLLQRHKGINEELVFGLPSYSYTL | not soluble
12 | MEKYAVILGKNPELSLVELKAFSRRFRLGVRILEERIYGSNKSFAIIQAKEDIEKYFRWIGGSLKLVRLIGEGVDSIRDLEYSKLFTVSVYGRRVDWKEWRRFGSMIKEVFKEKDSAKFFKPANTYAMPSELILKGFPKVKDVVLLFVDDKVLVGETVRVTDPFELKKLDVERPVVRPTISIPPRLARVMVNLSEIRRGNVLDPFCGTGTIVMELTLQGLNAYGTDIEEGRVRDAKKNIDWLRKEFRIRKYPVLKVCDVRRLRKCFPRTRFDAIITEPYMGKPLKYKPSRGEAIKIAKGLDRLYYQAFESFADVLKRGSIIVFVFPAFSLSNGEVYRRNRPWLEELGFKVLYRVSEGEEEHRIVRDIHVIKFIR | soluble
13 | MKTLFAFFILIFSNIVYAAPKAELWAYWQASNDSNTASVSHQAWQSILDRNLVQVGENALFRYAEVTKEDKTLLNDYLDQLSKLDPREFNRQEQYAYWVNLYNALTVKLILDNYPVASITKLGGLFSFGPWDEKVFTVAGQTLTLNDIEHRILRPIWKDPRTHYAVNCASLGCPNLQSQAFTAQNTERLLSNAAHTFINSSKGATLNNDTLILSSIYDWFAVDFGNKKELLIHLAQYRPELSLYSGKIDYQYDWKLNDTKEKKLEHHHHHH | soluble
14 | AQSRTLLAGIVQQQQQLLDVVKRQQELLRLTVWGTKNLQTRVTAIEKYLKDQAQLNAWGAAFRQVAHTTVPWPNASLTPKWNNETWQEWERKVDFLEENITALLEEAQIQQEKNMYELQKLNS | soluble
15 | MKLIVSGKNLEVTEGLREAVEKQISKLEKYFKPEVEAHVTLSVEKNRQIVEVTIPFNGVILRGEETNNDMYASIDIVGDKLERQVRKQKTKLERRKYSDSLKFQNIPDYHKEEQEPEIVKTKRFAIKPMSEEEAVLEMELLGHNFFVFQNGDSNEVNVVYKRKDGNYGLIEPEFLEHHHHHH | soluble
16 | MSYFGGLISTLFERRYQQALSDEVDSRTTCELCEALLSSHGEVSGVTLARNLLDRYAAMTEAEKTALFGFMAHDLEIDPDAVTHTLEAYKNNPGKDTYRAFAAACEPRRQELARRLNQVPGATGQLVQMRKDLLRMMKDHPDLEPVDVDFKHLFSSWFNRGFLVLRPIDWSSPANILEQIIAYEAVHEIDSWDELRRRLQPSDRRCFGFFHPSMADEPLIFVEVALTEGVPSSVQDLLADERDVITAQDADTAVFYSISNCQSGLAGISFGNSLIKQVVADLAKDLPGLTTFVTLSPIPGLNRWLQDADIDALKDADTQALAAHYLLEAKRSDGMPFDPVARFHLGNGALVHAVHAEADVSPNGRKQSNGAMVNYLYDLSQISQNHEKFVGDKIVVASTTVKALSGSVTTSLGTAAAAAALEHHHHHH | soluble
17 | GGHDVPLTNYLNAQYYTDITLGTPPQNFKVILDTGSSNLWVPSNECGSLACFLHSKYDHEASSSYKANGTEFAIQYGTGSLEGYISQDTLSIGDLTIPKQDFAEATSEPGLTFAFGKFDGILGLGYDTISVDKVVPPFYNAIQQDLLDEKRFAFYLGDTSKDTENGGEATFGGIDESKFKGDITWLPVRRKAYWEVKFEGIGLGDEYAELESHGAAIDTGTSLITLPSGLAEMINAEIGAKKGSTGQYTLDCNTRDNLPDLIFNFNGYNFTIGPYDYTLEVSGSCISAITPMDFPEPVGPLAIVGDAFLRKYYSIYDLGNNAVGLAKAI | soluble
18 | MALPLLPGNSFNRNVGKEKFHKSQHWGFCNNVMMLVSDEKPGIGGEPLLGQKIKPKCSIYPKGDGSDVPSWVAFDKQVLSFDAYLEEEVLDKSQTNYRIRYYKIYFYPEDDTIQVNEPEVKNSGLLQGTSIRRHRITLPPPDEDQFYTVYHFNVGTEVVFYGRTFKIYDCDAFTRNFLRKIGVKVNPPVQCPEDPYMKIRREVVEHVEPLRPYESLDTLKQFLQYHGKILCFFCLWDDSVSMFGDRRELILHYFLCDDTIEIKELLPHSSGRDALKMFLRRSKLPKNCPPRVYQPGQITDRAVLNSYGDFIKNQADGYLFDRYKLGKVDQEFYKDSDLSLGVTINVWGRKVLLYDCDEFTKSYYKSKYGIENFTSVSCKPPSPPPKIERKFPPYNGFGSEEDSLRNCIDLKPTPHRRNFKKFMEKDSYGSKSNILRFFAKLVTDKCVDLDRMFVISYYLGDDTISVFEPIERNSGIAGGMFLKRSRVKKPGQEVFKSELSEYIKAEELYIGVTVNVNGYLFRLLNADEYTLNYMEQNTDKYPFSNLKLALQKLKQEEGKSRELKQVFKAADSKHTNMVDYNTFRDILMSLTVGNLAEQEFVTIARHYRVPEGTCSDMDFLIALAHEKFKKNMFENFDTFIYSCVYEDREKKNVLPTKDIKRLCKSSRLPLSDDLLESLLSRFEDSEKQIDYKSFFSALNWRKNPVPELQPASYLKERCEDVWLGMPSPIPAKYIDYWTFLKDAFGLEEE | soluble
19 | MGSDKIHHHHHHMKPEIALNLWQLLWQEYSARVNHARTYQQMITTAGGTVANDHIAFRSLRLLVDSPQGEVNLGIDYLAQFAEALGYVAAGEYNFAQTHLYARYYRHPQQEEFNLPKLFISELIVDELPANIAQLISKTVSAIPHQLASPVTLLKKDAEIETIAKQLQQVFTRPWLPPRRSVVEEVNQVTQYGAWVLLHGYGVNHFTGYVNGQNTPEYPDIDTTASGLAHLGVPMKAEIEGNVACGLRQTATQAVTEMVTVLDDNSGVEIQIPWTYAYYEIAQRYPVEVEPGKQILFDAFLGSNAQQLFEMTRLSK | not soluble

— the DeepSol protein solubility set
